The text below walks through data of patent publication EP1417974A1.

The target of this assay is CD44v6 on antigen-positive FaDu cells (human) (UniProt P16070). Put plainly: flow cytometry (FACS) on antigen-positive FaDu cells, FITC-labeled anti-human IgG detection, on ice. A general note: In flow cytometry, cells or beads pass a laser one at a time.
Chain of UniProt P16070 (P16070 21-742): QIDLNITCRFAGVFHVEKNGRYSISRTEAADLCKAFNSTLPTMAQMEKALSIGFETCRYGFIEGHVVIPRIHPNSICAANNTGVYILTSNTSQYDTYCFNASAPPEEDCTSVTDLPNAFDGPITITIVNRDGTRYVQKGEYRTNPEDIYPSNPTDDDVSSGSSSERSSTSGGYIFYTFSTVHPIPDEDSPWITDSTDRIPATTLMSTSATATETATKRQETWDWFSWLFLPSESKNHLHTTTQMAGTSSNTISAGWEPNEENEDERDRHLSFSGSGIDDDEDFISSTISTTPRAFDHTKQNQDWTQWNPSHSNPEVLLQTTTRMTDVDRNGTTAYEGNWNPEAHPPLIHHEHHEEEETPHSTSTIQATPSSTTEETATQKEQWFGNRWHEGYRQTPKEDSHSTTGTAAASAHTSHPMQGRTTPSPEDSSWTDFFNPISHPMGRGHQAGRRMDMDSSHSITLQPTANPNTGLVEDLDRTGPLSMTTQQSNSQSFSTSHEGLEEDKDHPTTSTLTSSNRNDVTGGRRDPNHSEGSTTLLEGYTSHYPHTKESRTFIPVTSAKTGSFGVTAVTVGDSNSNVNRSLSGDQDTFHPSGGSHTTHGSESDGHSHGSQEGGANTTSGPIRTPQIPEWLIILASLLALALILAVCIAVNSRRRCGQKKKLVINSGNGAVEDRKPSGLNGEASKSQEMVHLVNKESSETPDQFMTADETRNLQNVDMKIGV

On to BIWI 1 (from UniProt P0DOX5 2-449), for which the Kd was found to be 1.8 nM.

B1: BIWA 4 (antibody, human IgG1, kappa, V domains shown)
VH: EVQLVESGGGLVKPGGSLRLSCAASGFTFSSYDMSWVRQAPGKGLEWVSTISSGGSYTYYLDSIKGRFTISRDNAKNSLYLQMNSLRAEDTAVYYCARQGLDYWGRGTLVTVSS
VL: EIVLTQSPATLSLSPGERATLSCSASSSINYIYWYQQKPGQAPRLLIYLTSNLASGVPARFSGSGSGTDFTLTISSLEPEDFAVYYCLQWSSNPLTFGGGTKVEIKR
Molecule B1 gave a Kd of 1 nM.

For orientation: Kd means a measure of binding affinity in units of concentration.
